Key:
Assay in all cases: cell-based or functional assay
[1] = molecular target: HIV-1 envelope glycoprotein (Env) of isolate 94UG103, clade A (HIV-1)
[2] = molecular target: HIV-1 envelope glycoprotein (Env) of isolate 93UG077, clade A (HIV-1)
[3] = molecular target: HIV-1 envelope glycoprotein (Env) of isolate NL43, clade B (HIV-1)
[4] = molecular target: HIV-1 envelope glycoprotein (Env) of isolate MGRM-D-001, clade D (HIV-1)
[5] = molecular target: HIV-1 envelope glycoprotein (Env) of isolate JRFL, clade B (HIV-1)
[6] = molecular target: HIV-1 envelope glycoprotein (Env) of isolate MGRM-A-010, clade A (HIV-1)
[7] = molecular target: HIV-1 envelope glycoprotein (Env) of isolate 92UG005, clade D (HIV-1)
[8] = molecular target: HIV-1 envelope glycoprotein (Env) of isolate MGRM-D-018, clade D (HIV-1)
[9] = molecular target: HIV-1 envelope glycoprotein (Env) of isolate APV13, clade B (HIV-1)
[10] = molecular target: HIV-1 envelope glycoprotein (Env) of isolate APV17, clade B (HIV-1)
[11] = molecular target: HIV-1 envelope glycoprotein (Env) of isolate CMU02, clade AE (HIV-1)
[12] = molecular target: HIV-1 envelope glycoprotein (Env) of isolate 92UG024, clade D (HIV-1)
[13] = molecular target: HIV-1 envelope glycoprotein (Env) of isolate JRCSF, clade B (HIV-1) (UniProt P20871)
[14] = molecular target: HIV-1 envelope glycoprotein (Env) of isolate 92BR020, clade B (HIV-1)
[15] = molecular target: HIV-1 envelope glycoprotein (Env) of isolate 93IN905, clade C (HIV-1)
[16] = molecular target: HIV-1 envelope glycoprotein (Env) of isolate MGRM-C-027, clade C (HIV-1)
[17] = molecular target: HIV-1 envelope glycoprotein (Env) of isolate MGRM-C-028, clade C (HIV-1)
[18] = molecular target: HIV-1 envelope glycoprotein (Env) of isolate APV6, clade B (HIV-1)
[19] = molecular target: HIV-1 envelope glycoprotein (Env) of isolate MGRM-C-026, clade C (HIV-1)
[20] = molecular target: aMLV envelope protein (negative control pseudovirus)
[21] = molecular target: HIV-1 envelope glycoprotein (Env) of isolate 92RW020, clade A (HIV-1)
[22] = molecular target: HIV-1 envelope glycoprotein (Env) of isolate 92TH021, clade AE (HIV-1)
[23] = molecular target: HIV-1 envelope glycoprotein (Env) of isolate MGRM-AG-005, clade AG (HIV-1)

B1: PGT-135 (5343_B08; 5344_E16) human monoclonal anti-HIV antibody (antibody, V domains shown)
VH: QLQMQESGPGLVKPSETLSLSCTVSGDSIRGGEWGDKDYHWGWVRHSAGKGLEWIGSIHWRGTTHYKESLRRRVSMSIDTSRNWFSLRLASVTAADTAVYFCARHRHHDVFMLVPIAGWFDVWGPGVQVTVSS
VL: EIVMTQSPDTLSVSPGETVTLSCRASQNINKNLAWYQYKPGQSPRLVIFETYSKIAAFPARFVASGSGTEFTLTINNMQSEDVAVYYCQQYEEWPRTFGQGTKVDIK
Question: What does the source list for B1?
Answer: IC50 (neutralization of pseudovirus) [1]: > 10 µg/mL; IC80 (neutralization of pseudovirus) [1]: > 10 µg/mL; IC90 (neutralization of pseudovirus) [1]: > 10 µg/mL; IC95 (neutralization of pseudovirus) [1]: > 10 µg/mL; IC50 (neutralization of pseudovirus) [2]: > 10 µg/mL; IC80 (neutralization of pseudovirus) [2]: > 10 µg/mL; IC90 (neutralization of pseudovirus) [2]: > 10 µg/mL; IC95 (neutralization of pseudovirus) [2]: > 10 µg/mL; IC50 (neutralization of pseudovirus) [3]: 6.79 µg/mL; IC80 (neutralization of pseudovirus) [3]: > 10 µg/mL; IC90 (neutralization of pseudovirus) [3]: > 10 µg/mL; IC95 (neutralization of pseudovirus) [3]: > 10 µg/mL; IC50 (neutralization of pseudovirus) [4]: > 10 µg/mL; IC80 (neutralization of pseudovirus) [4]: > 10 µg/mL; IC90 (neutralization of pseudovirus) [4]: > 10 µg/mL; IC95 (neutralization of pseudovirus) [4]: > 10 µg/mL; IC50 (neutralization of pseudovirus) [5]: > 10 µg/mL; IC80 (neutralization of pseudovirus) [5]: > 10 µg/mL; IC90 (neutralization of pseudovirus) [5]: > 10 µg/mL; IC95 (neutralization of pseudovirus) [5]: > 10 µg/mL; IC50 (neutralization of pseudovirus) [6]: > 10 µg/mL; IC80 (neutralization of pseudovirus) [6]: > 10 µg/mL; IC90 (neutralization of pseudovirus) [6]: > 10 µg/mL; IC95 (neutralization of pseudovirus) [6]: > 10 µg/mL; IC50 (neutralization of pseudovirus) [7]: > 10 µg/mL; IC80 (neutralization of pseudovirus) [7]: > 10 µg/mL; IC90 (neutralization of pseudovirus) [7]: > 10 µg/mL; IC95 (neutralization of pseudovirus) [7]: > 10 µg/mL; IC50 (neutralization of pseudovirus) [8]: 0.0433 µg/mL; IC80 (neutralization of pseudovirus) [8]: 0.2 µg/mL; IC90 (neutralization of pseudovirus) [8]: > 10 µg/mL; IC95 (neutralization of pseudovirus) [8]: > 10 µg/mL; IC50 (neutralization of pseudovirus) [9]: 0.545 µg/mL; IC80 (neutralization of pseudovirus) [9]: > 10 µg/mL; IC90 (neutralization of pseudovirus) [9]: > 10 µg/mL; IC95 (neutralization of pseudovirus) [9]: > 10 µg/mL; IC50 (neutralization of pseudovirus) [10]: > 10 µg/mL; IC80 (neutralization of pseudovirus) [10]: > 10 µg/mL; IC90 (neutralization of pseudovirus) [10]: > 10 µg/mL; IC95 (neutralization of pseudovirus) [10]: > 10 µg/mL; IC50 (neutralization of pseudovirus) [11]: > 10 µg/mL; IC80 (neutralization of pseudovirus) [11]: > 10 µg/mL; IC90 (neutralization of pseudovirus) [11]: > 10 µg/mL; IC95 (neutralization of pseudovirus) [11]: > 10 µg/mL; IC50 (neutralization of pseudovirus) [12]: 0.0139 µg/mL; IC80 (neutralization of pseudovirus) [12]: 0.054 µg/mL; IC90 (neutralization of pseudovirus) [12]: 0.122 µg/mL; IC95 (neutralization of pseudovirus) [12]: 0.267 µg/mL; IC50 (neutralization of pseudovirus) [13]: 0.113 µg/mL; IC80 (neutralization of pseudovirus) [13]: 0.503 µg/mL; IC90 (neutralization of pseudovirus) [13]: 1.47 µg/mL; IC95 (neutralization of pseudovirus) [13]: 8.3 µg/mL; IC50 (neutralization of pseudovirus) [14]: 0.104 µg/mL; IC80 (neutralization of pseudovirus) [14]: 0.253 µg/mL; IC90 (neutralization of pseudovirus) [14]: 0.43 µg/mL; IC95 (neutralization of pseudovirus) [14]: 0.72 µg/mL; IC50 (neutralization of pseudovirus) [15]: 0.0183 µg/mL; IC80 (neutralization of pseudovirus) [15]: 0.0648 µg/mL; IC90 (neutralization of pseudovirus) [15]: 0.136 µg/mL; IC95 (neutralization of pseudovirus) [15]: 0.268 µg/mL; IC50 (neutralization of pseudovirus) [16]: > 10 µg/mL; IC80 (neutralization of pseudovirus) [16]: > 10 µg/mL; IC90 (neutralization of pseudovirus) [16]: > 10 µg/mL; IC95 (neutralization of pseudovirus) [16]: > 10 µg/mL; IC50 (neutralization of pseudovirus) [17]: 2.16 µg/mL; IC80 (neutralization of pseudovirus) [17]: > 10 µg/mL; IC90 (neutralization of pseudovirus) [17]: > 10 µg/mL; IC95 (neutralization of pseudovirus) [17]: > 10 µg/mL; IC50 (neutralization of pseudovirus) [18]: > 10 µg/mL; IC80 (neutralization of pseudovirus) [18]: > 10 µg/mL; IC90 (neutralization of pseudovirus) [18]: > 10 µg/mL; IC95 (neutralization of pseudovirus) [18]: > 10 µg/mL; IC50 (neutralization of pseudovirus) [19]: 0.0123 µg/mL; IC80 (neutralization of pseudovirus) [19]: 0.0562 µg/mL; IC90 (neutralization of pseudovirus) [19]: 0.139 µg/mL; IC95 (neutralization of pseudovirus) [19]: 0.331 µg/mL; IC50 (neutralization of pseudovirus) [20]: > 10 µg/mL; IC80 (neutralization of pseudovirus) [20]: > 10 µg/mL; IC90 (neutralization of pseudovirus) [20]: > 10 µg/mL; IC95 (neutralization of pseudovirus) [20]: > 10 µg/mL; IC50 (neutralization of pseudovirus) [21]: 0.157 µg/mL; IC80 (neutralization of pseudovirus) [21]: 3.46 µg/mL; IC90 (neutralization of pseudovirus) [21]: > 10 µg/mL; IC95 (neutralization of pseudovirus) [21]: > 10 µg/mL; IC50 (neutralization of pseudovirus) [22]: > 10 µg/mL; IC80 (neutralization of pseudovirus) [22]: > 10 µg/mL; IC90 (neutralization of pseudovirus) [22]: > 10 µg/mL; IC95 (neutralization of pseudovirus) [22]: > 10 µg/mL; IC50 (neutralization of pseudovirus) [23]: > 10 µg/mL; IC80 (neutralization of pseudovirus) [23]: > 10 µg/mL; IC90 (neutralization of pseudovirus) [23]: > 10 µg/mL; IC95 (neutralization of pseudovirus) [23]: > 10 µg/mL

Source: patent publication US20250320281A1
